Assay results reported in IntAct's records for PubMed 24843043.

B1: Outer mitochondrial transmembrane helix translocase (Saccharomyces cerevisiae), P28737 (parent)
chain: MSRKFDLKTITDLSVLVGTGISLYYLVSRLLNDVESGPLSGKSRESKAKQSLQWEKLVKRSPALAEVTLDAYERTILSSIVTPDEINITFQDIGGLDPLISDLHESVIYPLMMPEVYSNSPLLQAPSGVLLYGPPGCGKTMLAKALAKESGANFISIRMSSIMDKWYGESNKIVDAMFSLANKLQPCIIFIDEIDSFLRERSSTDHEVTATLKAEFMTLWDGLLNNGRVMIIGATNRINDIDDAFLRRLPKRFLVSLPGSDQRYKILSVLLKDTKLDEDEFDLQLIADNTKGFSGSDLKELCREAALDAAKEYIKQKRQLIDSGTIDVNDTSSLKIRPLKTKDFTKKLRMDATSTLSSQPLD
partner: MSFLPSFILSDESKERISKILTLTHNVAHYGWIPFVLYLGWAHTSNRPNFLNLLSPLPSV
B2: Outer mitochondrial transmembrane helix translocase (Saccharomyces cerevisiae), P28737 (parent)
chain: B1 chain
partner: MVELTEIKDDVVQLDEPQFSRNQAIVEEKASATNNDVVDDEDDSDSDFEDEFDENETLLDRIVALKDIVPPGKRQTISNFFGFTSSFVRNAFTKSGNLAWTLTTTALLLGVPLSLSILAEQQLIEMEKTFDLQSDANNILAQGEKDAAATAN

Variants of: B1
Conditions: with tom7_yeast TOM7, P53507

Variant	effect of a mutation on the interaction
MSRKFDLKTITDLSVLVGTGISLYYLVSRLLNDVESGPLSGKSRESKAKQSLQWEKLVKRSPALAEVTLDAYERTILSSIVTPDEINITFQDIGGLDPLISDLHESVIYPLMMPEVYSNSPLLQAPSGVLLYGPPGCGKTMLAKALAKESGANFISIRMSSIMDKWYGESNKIVDAMFSLANKLQPCIIFIDQIDSFLRERSSTDHEVTATLKAEFMTLWDGLLNNGRVMIIGATNRINDIDDAFLRRLPKRFLVSLPGSDQRYKILSVLLKDTKLDEDEFDLQLIADNTKGFSGSDLKELCREAALDAAKEYIKQKRQLIDSGTIDVNDTSSLKIRPLKTKDFTKKLRMDATSTLSSQPLD [E193Q]	increasing interaction

Variants of: B2
Conditions: with tom22_yeast TOM22, P49334

Variant	effect of a mutation on the interaction
MSRKFDLKTITDLSVLVGTGISLYYLVSRLLNDVESGPLSGKSRESKAKQSLQWEKLVKRSPALAEVTLDAYERTILSSIVTPDEINITFQDIGGLDPLISDLHESVIYPLMMPEVYSNSPLLQAPSGVLLYGPPGCGKTMLAKALAKESGANFISIRMSSIMDKWYGESNKIVDAMFSLANKLQPCIIFIDQIDSFLRERSSTDHEVTATLKAEFMTLWDGLLNNGRVMIIGATNRINDIDDAFLRRLPKRFLVSLPGSDQRYKILSVLLKDTKLDEDEFDLQLIADNTKGFSGSDLKELCREAALDAAKEYIKQKRQLIDSGTIDVNDTSSLKIRPLKTKDFTKKLRMDATSTLSSQPLD [E193Q]	increasing interaction
